In patent US8377701B2, “Specific ligands to sortilin” (H. Lundbeck A/S, priority 2008, dated 2013):
Where no end group is shown, it is not given here.

T1: sSortilin (Homo sapiens, UniProt Q99523)
T1 construct: Soluble Sortilin (sSortilin); His6 (C); made in house; host or cells: CHO-K1
T1 sequence (Q99523 78-755 limits assumed): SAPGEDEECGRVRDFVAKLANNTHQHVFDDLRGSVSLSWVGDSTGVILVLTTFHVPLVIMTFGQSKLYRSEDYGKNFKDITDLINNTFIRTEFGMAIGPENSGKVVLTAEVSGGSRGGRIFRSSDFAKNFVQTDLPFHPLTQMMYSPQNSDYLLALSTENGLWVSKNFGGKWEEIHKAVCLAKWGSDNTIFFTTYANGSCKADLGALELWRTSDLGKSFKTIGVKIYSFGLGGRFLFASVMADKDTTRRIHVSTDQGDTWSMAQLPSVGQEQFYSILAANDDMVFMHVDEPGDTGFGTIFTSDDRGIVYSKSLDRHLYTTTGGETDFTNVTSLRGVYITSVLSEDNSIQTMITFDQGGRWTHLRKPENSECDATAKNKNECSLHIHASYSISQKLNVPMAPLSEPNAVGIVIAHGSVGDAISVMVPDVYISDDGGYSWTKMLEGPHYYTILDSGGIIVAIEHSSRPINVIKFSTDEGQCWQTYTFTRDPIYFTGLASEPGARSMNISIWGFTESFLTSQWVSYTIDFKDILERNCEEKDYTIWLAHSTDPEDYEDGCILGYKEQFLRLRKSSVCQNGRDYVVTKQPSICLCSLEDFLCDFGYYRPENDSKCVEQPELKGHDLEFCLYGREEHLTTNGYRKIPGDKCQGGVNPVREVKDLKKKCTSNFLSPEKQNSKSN

T2: S316E mutant sSortilin (Homo sapiens, UniProt Q99523, S316E)
T2 construct: His6 (C); made in house; host or cells: CHO cells
T2 sequence (Q99523 78-755 S316E): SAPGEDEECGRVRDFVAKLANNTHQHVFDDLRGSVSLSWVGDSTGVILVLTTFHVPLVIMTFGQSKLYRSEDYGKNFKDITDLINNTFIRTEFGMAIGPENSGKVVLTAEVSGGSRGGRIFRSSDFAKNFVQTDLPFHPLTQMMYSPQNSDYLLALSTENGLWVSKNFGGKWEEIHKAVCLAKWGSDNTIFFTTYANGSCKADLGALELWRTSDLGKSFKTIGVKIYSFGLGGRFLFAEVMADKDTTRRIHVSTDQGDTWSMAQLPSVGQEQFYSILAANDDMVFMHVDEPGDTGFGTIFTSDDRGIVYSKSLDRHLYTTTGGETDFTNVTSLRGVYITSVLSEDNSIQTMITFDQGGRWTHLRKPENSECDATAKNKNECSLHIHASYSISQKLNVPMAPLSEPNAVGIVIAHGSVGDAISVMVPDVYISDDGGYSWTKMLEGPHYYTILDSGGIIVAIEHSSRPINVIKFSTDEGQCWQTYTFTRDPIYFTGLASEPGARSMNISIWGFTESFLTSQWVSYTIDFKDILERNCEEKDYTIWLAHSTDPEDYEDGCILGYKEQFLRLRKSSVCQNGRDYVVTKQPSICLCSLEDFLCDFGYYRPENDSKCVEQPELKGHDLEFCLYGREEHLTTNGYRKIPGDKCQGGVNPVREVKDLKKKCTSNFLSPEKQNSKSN


Assays:
[1] = target: T1, sSortilin; assay: Surface plasmon resonance: ligand binding to immobilized sSortilin in absence or presence of Neurotensin derived peptides; conditions: for inhibition of binding of Sort-pro (GST-Sort-pro) to sSortilin: FIG. 3A+B
Method: (§1) Surface plasmon resonance (SPR) measurements were performed on a BIAcore 2000 instrument (Biacore Sweden) equipped with CM5 sensor chips maintained at 20° C. A continuous flow of HBS buffer (10 mM HEPES pH 7.4, 3.4 mM EDTA, 150 mM NaCl, 0.005% surfactant P20) passing over the sensor surface was maintained at 5 μl/min. […] A sortilin solution (320 μl, 5 μg/ml in 10 mM sodium acetate pH 4.0) was then injected over flow cells 1 and 2 at a flow rate of 15 μl/min. Remaining binding sites in all three flow cells were blocked by injection (5 μl/min) of 70 μl of 1 M ethanolamine pH 8.5. […] Screening of the samples was performed by injecting aliquots of 50 μl, at concentrations of 0.1-8 μM, through all flow cells with a flow rate of 5 μl/min. Unless otherwise stated, the samples were dissolved in 10 mM HEPES pH 7.4, 150 mM NaCl, 1.5 mM CaCl2, 1 mM EGTA, 0.005% surfactant P20. Sample buffer was also used as running buffer. The BIAcore response is expressed in relative response units (RU), i.e. the difference in response between the immobilized protein flow cell and the corresponding control flow cell (activated and blocked but without protein). Regeneration of the sensor chip after each cycle of analysis was performed by injecting 20 μl of 10 mM glycine/HCl pH 4.0, 500 mM NaCl, 20 mM EDTA and 0.005% surfactant P20. For calciumfree conditions, HBS containing 20 mM EDTA was used as sample as well as running buffer.

[2] = target: T2, S316E mutant sSortilin; assay: Surface plasmon resonance: ligand binding to purified sSortilin S316E mutant; conditions: compared with wtSortilin
Method: as §1

[3] = target: T1, sSortilin; assay: Surface plasmon resonance affinity of NGFpro and icosapeptides for immobilized sSortilin; format: binding; conditions: BIAcore 3000, 20° C., read-out: dissociation constant (Kd)
Method: All measurements were performed on a BIAcore 3000 instrument (Biacore Sweden) maintained at 20° C. A continuous flow of buffer F (10 mM HEPES pH=7.4, 150 mM (NH4)2SO4, 1.5 mM CaCl2, 1.5 mM EGTA and 0.005% Tween-20) was passed over the CM5 chip sensor surface at 5 μl/min. The affinity of NGFpro and the peptides for immobilized sSortilin were determined. The dissociation constant (Kd) for NGFpro was ˜10 nM and for peptide-4 (SEQ ID NO:51) ˜5 μM. The ability of the peptides to compete with NGFpro for binding to sSortilin was tested as well.

Row | Molecule | inhibition of binding of Sort-pro (GST-Sort-pro) to sSortilin [1] | binding to S316E mutant [2] | further results
1 | Arg8-Arg-Pro-Tyr-Ile-Leu13-NH2 [reference compound] | fails to inhibit | – | –
2 | BDNF: Mature BDNF, SEQ ID NO. 7 residues 128 to 246, purchased from R&D Systems | – | affinities similar to that of wtSortilin | –
3 | ITVDPRLFKKRRLRSPRVLF-NH2 [peptide-4] | – | – | Kd [3]: ~5 µM
4 | Sort-pro: Sortilin's own propeptide, residues 34-77 of SEQ ID NO:1, fused to GST (QDRLDAPPPPAAPLPRWSGPIGVSWGLRAAAAGGAFPRGGRWRR; also: fused to GST) | – | no binding | –
5 | Tyr-Ile-Leu [YIL] | full inhibition | – | inhibition of binding of the prodomain of NGF to sSortilin ([1]; FIG. 3C, not as efficiently as full length NT): hampers binding; inhibition of binding of RAP to sSortilin ([1]; FIG. 3D, not as efficiently as full length NT): hampers binding; affinity for Sortilin ([1]; summary statement): high affinity
6 | NGFpro: propeptide of Nerve Growth Factor, residues 19-121 of SEQ ID NO:6 (protein, left off: a dimerising Fc or GST) EPHSESNVPAGHTIPQVHWTKLQHSLDTALRRARSAPAAAIAARVAGQTRNITVDPRLFKKRRLRSPRVLFSTQPPREAADTQDLDFEVGGAAPFNRTHRSKR | – | affinities similar to that of wtSortilin | –
